In article PMC7817050 (PLoS Pathogens, 2021):

Columns and labels:
[1] = target: the molecule itself; assay: cryo-EM structure; native, full-length gB without antibody, in Amphipol 8-35, TBS pH7.4; 300kV Titan Krios; C3 symmetry imposed
[2] = target: the molecule itself; assay: crystal structure; gB ectodomain; 0.1 M Na acetate pH 4.6, 20% PEG 400, 6% ethylene glycol, room temperature vapor diffusion
[3] = target: T1, native, full-length VZV gB purified from VZV infected MeWo cells (varicella-zoster virus (parental Oka …, UniProt Q4JR05, N-linked glycosylation (sites in S4 Table))); assay: cryo-EM structure; Fab fragments added in molar excess to native, full-length gB in TBS pH7.4 with Amphipol 8-35, overnight at +4°C; complexes purified on Superose-6 in TBS pH7.4; 200kV F20 microscope; settings: both partners purified
T1 construct: VZV glycoprotein B (ORF31), parental Oka strain, residues up to 931; 71-residue signal peptide; native gB is cleaved by furin at 491RSRR494 into two fragments; residues 115-736 resolved in the cryo-EM structure; Held in Amphipol 8-35; also called glycoprotein B; native, full-length gB; not shown: V5, C-terminal, cleaved

[4] = target: T2, VZV gB wild type expressed from pCAGGS-gB in CHO-DSP1 cells (varicella-zoster virus, UniProt Q4JR05); assay: western blot; reducing, denaturing SDS-PAGE of anti-V5 immunoprecipitates from transfected CHO-DSP1 cells, blot probed with mAb 93k; settings: one partner purified
T2 construct: VZV glycoprotein B (ORF31) expressed from pCAGGS-gB; detected by an antiserum to residues 833-846 of the cytoplasmic region; also called WT gB; gB-WT; source: CHO-DSP1, transfected (pCAGGS-gB), in lysate; also on fixed transfected cells

B1: native, full-length VZV gB purified from VZV infected MeWo cells (natural protein)
chain: VSPSSFYESLQVEPTQSEDITRSAHLGDGDEIREAIHKSQDAETKPTFYVCPPPTGSTIVRLEPPRTCPDYHLGKNFTEGIAVVYKENIAAYKFKATVYYKDVIVSTAWAGSSYTQITNRYADRVPIPVSEITDTIDKFGKCSSKATYVRNNHKVEAFNEDKNPQDMPLIASKYNSVGSKAWHTTNDTYMVAGTPGTYRTGTSVNCIIEEVEARSIFPYDSFGLSTGDIIYMSPFFGLRDGAYREHSNYAMDRFHQFEGYRQRDLDTRALLEPAARNFLVTPHLTVGWNWKPKRTEVCSLVKWREVEDVVRDEYAHNFRFTMKTLSTTFISETNEFNLNQIHLSQCVKEEARAIINRIYTTRYNSSHVRTGDIQTYLARGGFVVVFQPLLSNSLARLYLQELVRENTNHSPQKHPTRNTRSRRSVPVELRANRTITTTSSVEFAMLQFTYDHIQEHVNEMLARISSSWCQLQNRERALWSGLFPINPSALASTILDQRVKARILGDVISVSNCPELGSDTRIILQNSMRVSGSTTRCYSRPLISIVSLNGSGTVEGQLGTDNELIMSRDLLEPCVANHKRYFLFGHHYVYYEDYRYVREIAVHDVGMISTYVDLNLTLLKDREFMPLQVYTRDELRDTGLLDYSEIQRRNQMHSLRFYDIDKVVQYDSGTAIMQGMAQFFQGLGTAGQAVGHVVLGATGALLSTVHGFTTFLSNPFGALAVGLLVLAGLVAAFFAYRYVLKLKTSPMKALYPLTTKGLKQLPEGMDPFAEKPNATDTPIEEIGDSQNTEPSVNSGFDPDKFREAQEMIKYMTLVSAAERQESKARKKNKTSALLTSRLTGLALRNRRGYSRVRTENVTGV
modifications: N-linked glycosylation (sites in S4 Table)
notes: VZV glycoprotein B (ORF31), parental Oka strain, residues up to 931; 71-residue signal peptide; native gB is cleaved by furin at 491RSRR494 into two fragments; residues 115-736 resolved in the cryo-EM structure; Held in Amphipol 8-35; also called glycoprotein B; native, full-length gB; not shown: V5, C-terminal, cleaved
Q: With B1 as the binder, how does the “stoichiometry N” value [1] read?
A: 3

B2: VZV gB ectodomain used for X-ray crystallography (domain or fragment, varicella-zoster virus (Oka strain), UniProt Q4JR05 72-736, looked up)
chain: VSPSSFYESLQVEPTQSEDITRSAHLGDGDEIREAIHKSQDAETKPTFYVCPPPTGSTIVRLEPPRTCPDYHLGKNFTEGIAVVYKENIAAYKFKATVYYKDVIVSTAGAGSSGTQITNRYADRVPIPVSEITDTIDKFGKCSSKATYVRNNHKVEAFNEDKNPQDMPLIASKYNSVGSKAWHTTNDTYMVAGTPGTYRTGTSVNCIIEEVEARSIFPYDSFGLSTGDIIYMSPFFGLRDGAYREHSNYAMDRFHQFEGYRQRDLDTRALLEPAARNFLVTPHLTVGWNWKPKRTEVCSLVKWREVEDVVRDEYAHNFRFTMKTLSTTFISETNEFNLNQIHLSQCVKEEARAIINRIYTTRYNSSHVRTGDIQTYLARGGFVVVFQPLLSNSLARLYLQELVRENTNHSPQKHPTRNTGSGGSVPVELRANRTITTTSSVEFAMLQFTYDHIQEHVNEMLARISSSWCQLQNRERALWSGLFPINPSALASTILDQRVKARILGDVISVSNCPELGSDTRIILQNSMRVSGSTTRCYSRPLISIVSLNGSGTVEGQLGTDNELIMSRDLLEPCVANHKRYFLFGHHYVYYEDYRYVREIAVHDVGMISTYVDLNLTLLKDREFMPLQVYTRDELRDTGLLDYSEIQRRNQMHSLRFYDIDKVVQ
modifications: N-linked glycosylation (sites in S4 Table)
notes: VZV glycoprotein B (ORF31), Oka strain, codon-modified; residues 72-736, without the 71 amino acid signal peptide; residues 115-736 resolved in the crystal; also called truncated gB; truncated VZV gB; source: HEK293 GnTI- cells, transiently transfected (pCMV-III), purified (Ni-NTA, ion-exchange, Superdex 200)
Q: With B2 as the binder, how does the “stoichiometry N” value [2] read?
A: 3

B3: Fab fragment of the neutralizing human mAb 93k (Fab, V domains shown)
VH: QVQLVQSGAEVKKPGSSVKVSCKASGGTFSNFAISWVRQAPGQGLEWMGRIMPLFVTSTYAQKFQGRVTISADASTSTAYMELSSLRSDDTAMYYCARDITAPGAAPTPLNFYGMDVWGQGTTVTVSS
VL: DIQMTQSPSTLSASVGDRVTITCRASQTISTWLAWYQQTPRKAPKLMIYKASILENGVPSRFSGSGSGTEFTLTISSLQPEDFATYYCQQYKSYPWTFGQGTKVEI
notes: map of gB-93k deposited here as EMD-22519; I53 of the VL chain is named; also called 93k Fab
Q: Does B3 bind [3]?
A: binds

B4: human neutralizing monoclonal antibody 93k (antibody, V domains shown)
VH: QVQLVQSGAEVKKPGSSVKVSCKASGGTFSNFAISWVRQAPGQGLEWMGRIMPLFVTSTYAQKFQGRVTISADASTSTAYMELSSLRSDDTAMYYCARDITAPGAAPTPLNFYGMDVWGQGTTVTVSS
VL: DIQMTQSPSTLSASVGDRVTITCRASQTISTWLAWYQQTPRKAPKLMIYKASILENGVPSRFSGSGSGTEFTLTISSLQPEDFATYYCQQYKSYPWTFGQGTKVEI
notes: variable part as the heavy chain of m12; as the light chain of m12; Human IgG (detected with anti-human IgG); also called mAb 93k
Q: Does B4 bind [4]?
A: binds
